Test results reported in paper PMC3859963 (Molecular cancer therapeutics, 2013).
Square brackets hold non-standard residues; d marks the D form. Ends that are not written are not given here.

Biological target: CD44s (UniProt P16070-12 21-361)
Test: flow cytometry on cells

Binder: [dK][dI][dK][dM][dV][dI][dS][dW][dK]G (also: 5(6)-FAM label, position not given here) [5(6)-FAM-HYD1]
- fold increase of binding versus vector only cells: 1.5 fold
